The target of one test is Myc-14-3-3γ wild type (UniProt P61981). Description: co-IP; HEK-293T cells co-transfected with FLAG-LRRK2 (wild type or mutant) and Myc-14-3-3; immunoprecipitation with anti-Myc antibody overnight, washes with modified RIPA buffer (300 mM NaCl); blot with anti-FLAG; Figure 5C quantified with LI-COR Odyssey.
The target in the next test is T1, GST-14-3-3γ (UniProt P61981 1-247).
T1 construct: 14-3-3 gamma; also called purified GST-14-3-3γ; Sepharose bead-conjugated GST-14-3-3γ; source: bacteria (100 µM IPTG, 4 hours at 37°C), purified following the manufacturer's instruction (GE Healthcare)
T1 sequence (looked up): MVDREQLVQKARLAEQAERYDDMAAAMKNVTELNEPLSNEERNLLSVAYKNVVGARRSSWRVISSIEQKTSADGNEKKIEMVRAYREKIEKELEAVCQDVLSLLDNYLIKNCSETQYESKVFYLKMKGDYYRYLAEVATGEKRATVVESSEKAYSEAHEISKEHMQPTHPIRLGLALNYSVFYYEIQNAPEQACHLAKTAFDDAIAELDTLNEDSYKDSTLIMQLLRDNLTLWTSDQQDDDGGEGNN
Description: pull-down; competition: synthetic peptide at various concentrations added to brain lysate of FLAG-LRRK2 Wt transgenic mice for 1 hour, then GST-14-3-3γ beads for 4 hours; read-out is the FLAG-LRRK2 pulled down. As to conditions: both partners purified.

Where no end group is shown, it is not given here. [ ]: non-standard residue; d: D form. pS = N[C@@H](COP(=O)(O)O)C(=O)O

Take FLAG-LRRK2 G2019S mutant, Q5S006 1-2527: the reduction of co-immunoprecipitation with Myc-14-3-3γ compared to wild type LRRK2 in the test with Myc-14-3-3γ wild type is less than 20%.
For the molecule “FLAG-LRRK2 S935A mutant (from UniProt Q5S006 1-2527) (natural protein)”, in the test with Myc-14-3-3γ wild type, the reduction of co-immunoprecipitation with Myc-14-3-3γ compared to wild type LRRK2 came to 90%.

B1: phospho-peptide QRHSNpSLGPC (containing pS935 of LRRK2) (peptide)
peptide: Ac-QRHSN[pS]LGPC
notes: stretch of LRRK2 around S935; C-terminal cysteine printed only in the methods; The results print the peptide without the last C (QRHSNpSLGP); the methods print QRHSNpSLGPC; also called pS935-containing peptide; phosphorylated peptide (pS935); source: synthetic peptide (The Rockefeller University Proteomics Resource Center, HPLC purified)
Regarding B1, the binding result in the test with GST-14-3-3γ is recorded as “binds”.

Source of the values: paper PMC3046972, “Phosphorylation-Dependent 14-3-3 Binding to LRRK2 Is Impaired by Common Mutations of Familial Parkinson's Disease” (PLoS ONE, 2011).
